assay: soluble on expression in E. coli; label from the status in PepcDB or PDB records

Sequence | soluble on expression in E. coli
MLTALKTDTGKIRQHNEDDAGIFKGKDEFILAVVADGMGGHLAGDVASKMAVKAMGEKWNEAETIPTAPSECEKWLIEQILSVNSKIYDHAQAHEECQGMGTTIVCALFTGKTVSVAHIGDSRCYLLQDDDFVQVTEDHSLVNELVRTGEISREDAEHHPRKNVLTKALGTDQLVSIDTRSFDIEPGDKLLLCSDGLTNKVEGTELKDILQSDSAPQEKVNLLVDKANQNGGEDNITAVLLELALQVEEGEDQC | soluble
MKLSAYHKARGGLVEWWNPKNHYDLVYKSRVFTDTYSKDTIAVTNADAVILGGTGYDLGENLPDAVEHTRPDAALYPQFSDTAYGFLSRGCPRNCGFCIVSGKEGRRSRKVADLSEFWDGQKEIKLLDANLLACPDHEALILQLAESRAWVDFSQGLDIRLITPDNVALLNRVRTRAVHFAWDNPDEDLTGYFRRFLELTAIKSDRKRRVYVLTNYGSTHEQDLYRVETLRGMGYDPYVMVYDRPAAPKITRQLQRWVNNKRIFYTVKNFADYIPNRTGGIT | not soluble
MLKDEYGRVVTNLRIAVTKKCNLRCFYCHKEGESNPGEEISAERIVEIARAFKELGVRKLKITGGEPLLRKDLPDIILNLPEFEEISMTTNGILLEKYAEELRECGLSRVNVSLDTLDAEKYRWITGGGEVQKVVNGIEKACEVGLTPVKINMLVLGGVNDNEVDELLEFTNSFNRGNTKAILQVIELVPFPGFEKYFFDISTIEEKYARMATQRRVRAMHRRTQYFTPKGVIEFVKPMDNTAFCMHCNRMRVTSDGKLKPCLLRNETITIDGKHGEELARAIIETVRKREPYFKG | not soluble
SLEGWGRGLAMFYIRRVETPEGLVMVLVTDEDVMERAVYDEERGVRIIVSRSFYGGSLGTEADAIKTIEKADIIVLTGEKSVSIGVRMGLVNPDSVLEVKGIKQVQVFKFSY | soluble
MKKKTTLSEEDQALFRQLMAGTRKIKQDTIVHRPQRKKISEVPVKRLIQEQADASHYFSDEFQPLLNTEGPVKYVRPDVSHFEAKKLRRGDYSPELFLDLHGLTQLQAKQELGALIAACRREHVFCACVMHGHGKHILKQQTPLWLAQHPHVMAFHQAPKEYGGDAALLVLIEVEEWLPPELP | not soluble
MGSDKIHHHHHHMNIRILGCHGSQVPGCNTTSFLVEENVLIDAGSITSTLTAEEQVKVDYIFVTHAHLDHVKEMMFMVDNLWYLQKSNPLTIVSIEPVIHALKTHLFNGLIWPDFSSLPNAENPVLRYEILEVGGKRNIGSFAVTAISVNHTVETVSYVIETGQGSMIFIGDTGPTEEIWKVANSIEDLKAIFVETSLPDEMNHIAEMTGHLTPAMLMKELFKLNNKNLDIYLYHMKDFYSKLITRQVAAMNQNRLHILEDGQTVRI | not soluble
MGSDKIHHHHHHMLESYITVKQDGFSEIEIKKSRFICSVKRVTSEEEAKAFIAAIKKEHWKANHNCSAFVIGEKNDIQRSSDDGEPSGTAGVPMLEVLKKKELINVVAVVTRYFGGIKLGTGGLIRAYSHALSHTLDEIGLVIGKLQQELLITIAYPLLGKAQAFLEHSPYTLKETIYTESIQLICLVDEQATETFIAEMTDLLNGQLTIEKGATSYHELPFNEKGAQANDI | not soluble
VAPLGLSVPSDVELPPTAKMHAIIERTASFVCRQGAQFEIMLKAKQARNSQFDFLRFDHYLNPYYKFIQKAMKEGRYTVLAENKSDEKKKSGVS | soluble
GPGSMTDRLTAEDVFYELSTIRDPERPDCTLADLDVVAMNRCRVEYIESSADFQSLRGQGCNDSGKPSVVVKVILQPTVPHCSLMEFICLCVYVRLREVFSLSNNAKFDITLVDGSHVRQRELEKQVADKERLAAAMEDKALLQEVERHINCE | soluble
MGSDKIHHHHHHMSAQIIQLHTEAPAASVAQSPRKPTKAEKAIIADYVQDLIRRGFCKITDKSAKETRLFNRFDGEPQTLSYLRENFTEWLDDNGKECEFFCERYFIRRLKHIVGRVFKPNAPEFTQSPITGYRYANTYRRYEPTVDSADLPSCFHAYFERMFPAKHQRHIVLQWLAHIFRRPDQRPSWHLMLLSEPGTGKGFLVQNILQPLLHHTSVVASYSRITGKHSAVLVENLVILLDDCKSRSEATQTEMKSFLSEERALVERKYASAGMEDTYARMILASNEEIPLYVDPNERRWYIPDDVVHLVDLRETQANIIQPLADWLDEPGSLCKVYNWFMQYPLDGFNHKSVPESEGLTRLIDKSKGPYRQYIEDYVKDNKVFTYADLVESMTDAKLSKPSDRELGHVLREIGYEATQRRIDGVRLRLCHPVGMSLQDIRAAYSASPTDPNTPF | not soluble
MGSDKIHHHHHHMPTVHDLDTPSILIDAARAEANIARAQAHADKNGLKLRPHIKTHKLPYWAKKQVAAGAVGITCQKIGEAEVMTDAGLSDIFLPYNILGRAKLQRLKTLHGRVTLSVTSDSMETLEGLAATFTDAGHPLQVLVECDTGMGRCGVQTADQAVALARLIDKAGGLTFGGLMTYPAAGRAAEAEAWLANAKQALAASGLACERISSGGTPDMWRSGEDSVVTEYRPGTYIYLDRYQVAKGVGTLDDCALTVLATVVSHPTATRAILDSGSKALSSDTLGLKDFGELLGAPDARVTGLSEEHGTVTLSGDAKLRIGERVRVVPDHCCVVTNLFNEVNLIDGETVLETLPVAARGKMG | not soluble
MAEPQPASSGLTDETAFSCCSDPDPSTKDFLLQQTMLRIKDPKKSLDFYTRVLGLTLLQKLDFPAMKFSLYFLAYEDKNDIPKDKSEKTAWTFSRKATLELTHNWGTEDDETQSYHNGNSDPRGFGHIGIAVPDVYSACKRFEELGVKFVKKPDDGKMKGLAFIQDPDGYWIEILNPNKIATII | soluble
MTHIYEPRLSRIAIDKLRPTQIAVGFREVELKRKEWRETRKKDGDDFLGNHIVPVVAGPKDRAYLIDHHHLVLALSKEGVEHVLTSEVAKFSHLGKDEFWSVMDHRNLIYPFDAQGLRRQSGDIPKNIHDLEDDPFRSLAGALRMAGGYAKVIIPFSEFGWADFLRRRIDRDLLSDSFDDALAEAMKLAKSREARHLPGWCGVEEAAALEHHHHHH | soluble
MGSDKIHHHHHHMNKSIFDDINSTNIGSYWTTLSQQMDPYLWETLMPNSKQIASDFVFYRGMSNAPKPLAPSAFGVPAIMRKRSGFDRVSDHTRYFKEGYYIDEAIRQQLLRVGANATQAEKDMINNHIFQDSMELLKGAQLTREIMRNQIIQTGKINVIGNGQTITADYQMKASHRVVNDKAWGTTGSTPFEDIQKARDLVGDDSDQVITRAVMNKATFNALMSDTNVKSTMLYDNGKLANVTIPQSELLNFLVTNYGLTVQIYDKRYMDIDGTKKKWIPDGRVIFLPDGELGKTIMSTTPEEADLAAASDVDMTLVDNGVAITTMLDSDPVNKKINVSQEVMPSFPQIDGIYILDAFAKTGTDPLATTPTAPASTTTTTDPKA | not soluble
MPSIYKSVTINTSKEMMCFSDFPVPDHFPNYMHNSKLMDYFGMYATHFGLLNYIRFKTEVQSVRKHPDFSINGQWDVVVETEEKQETLVFDGVLVCSGHHTDPYLPLQSFPGIEKFEGCYFHSREYKSPEDFSGKRIIVIGIGNSGVDIAVELSRVAKQI | not soluble
METRQASGQLAALVRPNDVNSGSLLFPSKEPGFYVEAPRLKTDVAIDVSGPIARVKVTQRFQNPSQGWIEGTYVFPLPDNSAVDALKMQIGDRFIEGQIKPRQEAREIYEQAKAEGKKTALLEQQRPNIFTNQVANIGPGEEIVVQIEYQQTVHQSGGEFSLRFPMVVAPRYNPAPIVQTVDFNNGAGFAIPRDPVQNREKIEAPVLDPRENARINPVSLTVNLKAGFPLGEVKSSFHDVDIGQDGDQARTISLKGDAVPADKDFELTWKAAPGKTPSAGLFREAIDGKTYLLAFVTPPTAPDAAAPSKREVVFVIDNSGSMSGQSIEQARQSLALAISRLNPNDRFNVIRFDDTMTDYFKGLVAATPDNREKAVAYVRSLTADGGTEMLPALEDALRNQGPVASGALRQVVFLTDGAIGNEQQLFQEITANRGDARVFTVGIGSAPNTYFMTKAAEVGRGTFTQIGSTDQVASRMSELFAKLQNPTMTDIAASFEGIEAEDITPNPMPDLYSGEPVVLTAELPQDKAAGKLQIVGKTGDQPWRVEMDIANAAVGSGISKLWARRKIDDLEARAYERQDPAALDKDIEAVALAHHLVSRVTSLVAVDVTPSRPANEPLGSAKLPLNLPEGWDFGKVFGEKAVPSGGAERHGAATPAGSAEPQRAAAATQDLAASPEIANLMAAAPTAKAATLIAQKSSTVNLPQTATRADEQIMRGLEHHHHHH | soluble
MLRVRLTKMQSDELDAIIGELQAQMPEASVTTSSIARYALEKYVSDHIAKRDGTKIFIEINTADATEEEIKNLYDLLSKLFDEAKENYSPMVHYMVGEILEPLMMKMARLMKLKKPEVKAGE | not soluble
MSLGNVGHLITPAIPLDYGELLAAPVTSSESMAQLRGRWIVLSVADGPCAEVCRQNLYKTRQMRLMLNKEIPRVRRLLLLTDPGAADALADWLRQDEFLAVAGLAPTLREKLEKAVGGPLQPGQILLLDPLGNLMMYYDADFDPYGVLKDLKHLLRASQIGEGHHHHHH | soluble
MTAVRRIRAAALPDLPDASWSNALLVGEELVMSGMTAHPATRQAAERGAALDAHAQALVVLGKVKALLEAAGGHVGNLYKLNVYVTRIADKDAIGRARQEFFAGQGTFPASTLVEVSGLVFPELLVEIDAWARLDIDLANCDEA | soluble
MGHHHHHHSHMVKPLSPLNIQKLARHHGPRLWSQLLGRLRQVGHVGSGVRDQPGQHGETPISTKNTKISQASWPTPVVPATREAEVEGSLKSWGQGCSELLSHHCTPAWATVRPCLKKKRKMKQKLTCLLPPN | not soluble
MHAFPLTLDNRLAEALPLWRNLARTDRAPRRNIDLADWKADWRELIAALDRFSRSHGYRQPFAAQGHAALENAWAWGQAAENASTLLLKAIDRGLAGAELRSIYLETAALWLDYSRLLGAARDSLREQGEVDFETAPALAPRTGQYPFALQLLAMGVLLDAQELIPALVEEVLQFDTDRLLDYLGAAALGLTSASEETFHPRPFGQLRAFFEEADGSDAQALAPYLQSQYREFFQLSPKAQKKTRRLTGPYAWGWWAMEVSALGVLYGWDDGVLRASPHYLGDLVDYARARGDA | soluble
SPINPYKDHMSVLKAYYAMNMEPNSDELLKISIAVGLPQEFVKEWFEQRKVYQYSNSR | soluble
GHHHHHHAIAENLYFQSDLFETSQIEKLLESLENYQPAFPDALVRYYLAKSGFQTDDIRAERLVALAAQKFVADVANDALNHVKLRQQSQATSKKSKENEVILTVEDLSKALEEYGVHLKKPPYYVDSPVVGVGSANLKKRKTEQVTSVKPEEKSLEGKEVFKEEPKEEDKELTQEPENV | soluble
IIHEVQKEEACGNLTLQHHMLEPVQRIPRYELLLKDYLLKLPHGSPDSKDAQKSLELIATAAEHSNAAIRKMERMHKLLKVYELLGGEEDIVSPTKELIKEGHILKLSAKNGTTQDRYLILFNDRLLYCVPRLRLLGQKFSVRARIDVDGMELKESSNLNLPRTFLVSGKQRSLELQARTEEEKKDWVQAINSTLLKHEQTLETFKLLNSTNREDEDTPPNSPNVDLGKRAPTPIREKEVTMCMRCQEPFNSITKRRHHCKACGHVVCGKCSEFRARLVYDNNRSNRVCTDCYVALHGVPGSSPACSQHTPQRRRSILEKQASVAAENSVICSFLHYMEKGGKGWHKAWFVVPENEPLVLYIYGAPQDVKAQRSLPLIGFEVGPPEAGERPDRRHVFKITQSHLSWYFSPETEELQRRWMAVLGRAGRGDTFCPGPTLSEDREMEEAPVAALGATAEPPESPQTRDKT | soluble

Source: the DeepSol protein solubility set
